# Reference: doi:10.1101/2019.12.24.886648
# Biological target: endogenous Sec22b (rat) (rat (endogenous in PC12 and in rat hippocampal neurons)) (UniProt Q4KM74)
# Test: proximity ligation
# UniProt Q4KM74, sequence (Q4KM74 whole entry): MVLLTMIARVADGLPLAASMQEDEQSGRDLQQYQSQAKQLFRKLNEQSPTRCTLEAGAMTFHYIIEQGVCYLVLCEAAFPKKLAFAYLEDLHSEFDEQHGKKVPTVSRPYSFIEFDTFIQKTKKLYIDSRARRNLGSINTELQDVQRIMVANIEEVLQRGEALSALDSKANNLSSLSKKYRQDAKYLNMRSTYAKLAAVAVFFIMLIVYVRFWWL
substance,measurement,value
endogenous E-Syt2 (rat hippocampal neurons) (natural protein),"PLA signal normalized for the area, cell bodies",2.85%
same,"PLA signal normalized for the area, growth cones",7.64%
same,"PLA signal normalized for the area, neurites",5.53%
